Test results from patent US9365599B2, “N3S1 chelator-folate derivatives, preparation method thereof and composition for diagnosis or treatment of cancer containing the same as an active ingredient” (KOREA ATOMIC ENERGY RESEARCH INSTITUTE, priority 2012, dated 2016).

How the values were obtained:
folate-receptor (FR) = target: T1, folate-receptor (FR) (Homo sapiens, UniProt P15328); test: Competitive binding assay on FR-positive KB cells with 99mTc-labeled folate radioligand
T1 construct: FR-positive KB tumor cells (human oral epidermoid carcinoma) which overexpress FR; endogenous in cells; host or cells: KB cells (human oral epidermoid carcinoma)
T1 sequence (P15328 25-234): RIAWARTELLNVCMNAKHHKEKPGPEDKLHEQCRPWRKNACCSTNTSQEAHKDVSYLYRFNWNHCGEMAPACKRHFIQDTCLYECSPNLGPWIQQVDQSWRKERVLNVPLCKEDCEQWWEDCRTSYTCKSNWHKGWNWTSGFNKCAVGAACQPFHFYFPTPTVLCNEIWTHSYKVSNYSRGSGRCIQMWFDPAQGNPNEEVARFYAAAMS
Method: After that, the cells were washed with an acid wash buffer (50 mM glysine-HCL buffer, pH 2.4), to remove membrane bound radioligand, and the supernatant was collected to measure the membrane bound fraction of radioactivity. Cells were lysed with 1N NaOH, transferred and measured the internalised fraction of radioactivity with γ-counter. Counted radioactivity in membrane bound fraction and internalized fraction could be ascribed to the sum of cell uptake. The cell uptake data was expressed as % cell uptake (cell uptake/total added activity). […] Cells were harvested with typsin and washed with PBS buffer, and 8×10^5 cells were seeded in 12-well plates. […] After that, the cells were collected to measure the radioactivity with γ-counter.

[1] = system: FR-positive KB tumor cells; test: Time-dependent cell uptake (membrane bound and internalized fraction) in FR-positive KB cells; assay type: cell-based, human; details: 37° C., 10-180 min
Method: FR-positive KB tumor cells (human oral epidermoid carcinoma) which overexpress FR were grown in T-flask until 80%-90% confluence at 37° C. and 5% CO2 with folid-acid free (deficient) RPMI 1640 medium (FFRPMI) containing 10% heat-inactivated fetal bovine serum (FBS). […] Cells were rinsed twice with ice-cold PBS and pre-incubated with 850 μl of fresh FFRPMI without FBS at 37° C. for 30 min. […] After incubation, the well plates were washed twice with ice-cold PBS.
After that, the cells were washed with an acid wash buffer (50 mM glysine-HCL buffer, pH 2.4), to remove membrane bound radioligand, and the supernatant was collected to measure the membrane bound fraction of radioactivity. Cells were lysed with 1N NaOH, transferred and measured the internalised fraction of radioactivity with γ-counter. Counted radioactivity in membrane bound fraction and internalized fraction could be ascribed to the sum of cell uptake. The cell uptake data was expressed as % cell uptake (cell uptake/total added activity). Each data represents a result of the […] of triplicate wells. The affinity of PKCK-fol was determined using competitive binding assay. ^99mTc-PKC-fol was used as radioligand in this assay. Cells were harvested with typsin and washed with PBS buffer, and 8×10^5 cells were seeded in 12-well plates. […] After that, the cells were collected to measure the radioactivity with γ-counter. […]

KB tumor xenograft = test: in vivo; parameters: species or system mice; details: mouse, iv
Method: (§1) The stock solution of the ^99mTc-labeled PKCK-fol-OH used in the animal studies was prepared for 10^−8 mol/ml with an activity of 370 MBq. Solutions for injection were prepared by the dilution of the stock solution to obtain a desired volumetric activity of 3.7 MBq/ml. The biodistribution experiments for the ^99mTc-labeled PKCK-fol-OH were performed with KB-bearing female nude mice (provided by OrientBio, Republic of Korea). […] After tumor was allowed to grow for 2-3 weeks, the mice were administered 370 kBq (10 uCi)/100 μl intravenously. At 30 min, 1 hr, 3 hr and 24 hr, the animals were sacrificed.
(§2) Table 1 below lists biodistribution results measured at 30 min, 1 hr, 3 hr and 24 hr after injection.

in vivo = test: in vivo; parameters: species or system mice; details: female, nude, mouse, iv, 370 kBq, total radioactivity
Method: as §1, §2

Work on `NCCCCC(NC(=O)C1CCCN1)C(=O)NC(CS)C(=O)NCCCCC(NC(=O)CCC(NC(=O)c1ccc(NCC2=NC3C(=O)NC(N)=NC3N=C2)cc1)C(=O)O)C(=O)O` (stereo not shown) [Example 1, PKCK-Fol-OH] yielded an IC50 (folate-receptor (FR)) of 160 nM.

In the case of `NCCCC[C@H](NC(=O)[C@@H]1CCCN1)C(=O)N[C@@H](CS)C(=O)NCCCC[C@H](NC(=O)CC[C@H](NC(=O)c1ccc(NCc2cnc3nc(N)[nH]c(=O)c3n2)cc1)C(=O)O)C(=O)O` (99mTc complex, metal not drawn) [Example 10], the “cell affinity and internalization rate” value [1] is reported as “increased time dependently”, the “uptake in other organs (lung, heart, stomach and intestines)” value (KB tumor xenograft) is reported as “kept at a low level” and the tissue uptake at 0.5 h (in vivo; Blood uptake) is reported as 0.64 ± 0.26 %ID/g. The tissue uptake at 1 h (in vivo; Blood uptake) was 0.36 ± 0.06 %ID/g, the tissue uptake at 3 h (in vivo; Blood uptake) was 0.18 ± 0.05 %ID/g and the tissue uptake at 24 h (in vivo; Blood uptake) was 0.06 ± 0.02 %ID/g. For the same compound, the tissue uptake at 0.5 h (in vivo; Heart uptake) was 2.25 ± 0.47 %ID/g, the tissue uptake at 1 h (in vivo; Heart uptake) was 1.73 ± 0.27 %ID/g and the tissue uptake at 3 h (in vivo; Heart uptake) was 1.03 ± 0.32 %ID/g. For the same compound, the tissue uptake at 24 h (in vivo; Heart uptake) was 0.1 ± 0.06 %ID/g, the tissue uptake at 0.5 h (in vivo; Kidney uptake) was 76.5 ± 5.04 %ID/g and the tissue uptake at 1 h (in vivo; Kidney uptake) was 77.2 ± 5.43 %ID/g. It also gave a tissue uptake at 3 h (in vivo; Kidney uptake) of 41.5 ± 12.1 %ID/g, a tissue uptake at 24 h (in vivo; Kidney uptake) of 7.49 ± 1.9 %ID/g and a tissue uptake at 0.5 h (in vivo; Lg Int uptake) of 2.43 ± 1.38 %ID/g. It also gave a tissue uptake at 1 h (in vivo; Lg Int uptake) of 3.43 ± 0.73 %ID/g, a tissue uptake at 3 h (in vivo; Lg Int uptake) of 1.48 ± 0.64 %ID/g and a tissue uptake at 24 h (in vivo; Lg Int uptake) of 1.38 ± 0.86 %ID/g. For the same compound, the tissue uptake at 0.5 h (in vivo; Liver uptake) was 7.21 ± 1.58 %ID/g, the tissue uptake at 1 h (in vivo; Liver uptake) was 5.42 ± 1.85 %ID/g and the tissue uptake at 3 h (in vivo; Liver uptake) was 2.83 ± 0.6 %ID/g. It also gave a tissue uptake at 24 h (in vivo; Liver uptake) of 1.09 ± 0.07 %ID/g, a tissue uptake at 0.5 h (in vivo; Lung uptake) of 1.7 ± 0.35 %ID/g and a tissue uptake at 1 h (in vivo; Lung uptake) of 1.45 ± 0.33 %ID/g. The tissue uptake at 3 h (in vivo; Lung uptake) was 0.63 ± 0.26 %ID/g, the tissue uptake at 24 h (in vivo; Lung uptake) was 0.12 ± 0.06 %ID/g and the tissue uptake at 0.5 h (in vivo; Sm Int uptake) was 0.93 ± 0.54 %ID/g. It also gave a tissue uptake at 1 h (in vivo; Sm Int uptake) of 0.43 ± 0.05 %ID/g, a tissue uptake at 3 h (in vivo; Sm Int uptake) of 0.27 ± 0.12 %ID/g and a tissue uptake at 24 h (in vivo; Sm Int uptake) of 0.1 ± 0.05 %ID/g. It also gave a tissue uptake at 0.5 h (in vivo; Spleen uptake) of 0.47 ± 0.13 %ID/g, a tissue uptake at 1 h (in vivo; Spleen uptake) of 0.36 ± 0.03 %ID/g and a tissue uptake at 3 h (in vivo; Spleen uptake) of 0.3 ± 0.07 %ID/g. It also gave a tissue uptake at 24 h (in vivo; Spleen uptake) of 0.1 ± 0.03 %ID/g, a tissue uptake at 0.5 h (in vivo; Stomach uptake) of 1.92 ± 0.26 %ID/g and a tissue uptake at 1 h (in vivo; Stomach uptake) of 1.2 ± 0.05 %ID/g. For the same compound, the tissue uptake at 3 h (in vivo; Stomach uptake) was 0.55 ± 0.16 %ID/g, the tissue uptake at 24 h (in vivo; Stomach uptake) was 0.13 ± 0.04 %ID/g and the tissue uptake at 0.5 h (in vivo; Tumor uptake) was 2.6 ± 0.53 %ID/g. The tissue uptake at 1 h (in vivo; Tumor uptake) was 2.96 ± 0.51 %ID/g, the tissue uptake at 3 h (in vivo; Tumor uptake) was 2.24 ± 0.27 %ID/g and the tissue uptake at 24 h (in vivo; Tumor uptake) was 0.91 ± 0.28 %ID/g. It also gave a tissue to tissue ratio at 0.5 h (in vivo; Tumor/blood ratio) of 4.38 ± 0.92, a tissue to tissue ratio at 1 h (in vivo; Tumor/blood ratio) of 8.35 ± 1.12 and a tissue to tissue ratio at 3 h (in vivo; Tumor/blood ratio) of 13.2 ± 2.78. For the same compound, the tissue to tissue ratio at 24 h (in vivo; Tumor/blood ratio) was 15.2 ± 4.36, the tissue to tissue ratio at 0.5 h (in vivo; Tumor/kidney ratio) was 0.03 ± 0.01 and the tissue to tissue ratio at 1 h (in vivo; Tumor/kidney ratio) was 0.04 ± 0.01. It also gave a tissue to tissue ratio at 3 h (in vivo; Tumor/kidney ratio) of 0.06 ± 0.01, a tissue to tissue ratio at 24 h (in vivo; Tumor/kidney ratio) of 0.12 ± 0.02 and a tissue to tissue ratio at 0.5 h (in vivo; Tumor/liver ratio) of 0.38 ± 0.14. The tissue to tissue ratio at 1 h (in vivo; Tumor/liver ratio) was 0.58 ± 0.17, the tissue to tissue ratio at 3 h (in vivo; Tumor/liver ratio) was 0.82 ± 0.2 and the tissue to tissue ratio at 24 h (in vivo; Tumor/liver ratio) was 0.83 ± 0.24.
